Experimental findings from article PMC5367461 (Biochemical and biophysical research communications, 2017) are described below.

A word on the stoichiometry N: it is a count of units in the complex or per binding partner.

Data set [1] concerns the molecule itself. The experiment in a line: SDS-PAGE with/without BME.
For data set [2], the target named is T1, PDZ-RhoGEF PDZ domain (residues 41-123), human (human, UniProt O15085 41-123).
T1 sequence (looked up): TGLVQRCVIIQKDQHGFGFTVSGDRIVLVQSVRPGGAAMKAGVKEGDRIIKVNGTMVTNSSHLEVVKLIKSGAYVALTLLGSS
In words: crystal structure.

B1: rPDZ-CXCR2 fusion protein: human PDZ-RhoGEF PDZ (residues 41-123) with the C-terminal extension TSTTL of human CXCR2 (other)
chain: TGLVQRCVIIQKDQHGFGFTVSGDRIVLVQSVRPGGAAMKAGVKEGDRIIKVNGTMVTNSSHLEVVKLIKSGAYVALTLLGSSTSTTL
Take B1: the “stoichiometry N” value in data set [1] worked out at 2.
For TSTTL [CXCR2 C-terminal PDZ binding motif TSTTL (residues 356-360 of human CXCR2)], the binding result in data set [2] was “binds”.
